Test results from the supplement of paper PMC9112550, “Optimization of the antimicrobial peptide Bac7 by deep mutational scanning” (BMC Biology, 2022).

Tested on: Escherichia coli TOP10
Test: shrunken log2 fold change of peptide-encoding DNA abundance (4.5 h post-induction vs induction); higher = less antimicrobial activity (less host growth inhibition)
Conditions: time post-induction: 4.5 h; library: site-saturation at positions 5, 18, 19, 20
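Also: peptides expressed intracellularly from a pBAD plasmid library in pooled LB shake-flask culture, induced with 0.3% L-arabinose, DNA abundance read by NGS, three biological replicates, DESeq2 with apeglm shrinkage.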

## RRIRHRPPRLPRPRPRPLIVPRP
  shrunken log2 fold change: -0.314

## RRIRHRPPRLPRPRPRPIGRPRP
  shrunken log2 fold change: -0.00982

## RRIRFRPPRLPRPRPRPGCCPRP
  shrunken log2 fold change: 0.258

## RRIRGRPPRLPRPRPRPIPYPRP
  shrunken log2 fold change: -0.1

## RRIRTRPPRLPRPRPRPFSRPRP
  shrunken log2 fold change: 0.0136

## RRIRFRPPRLPRPRPRPNSDPRP
  shrunken log2 fold change: -0.209

## RRIRCRPPRLPRPRPRPPGQPRP
  shrunken log2 fold change: 0.494

## RRIRARPPRLPRPRPRPDEMPRP
  shrunken log2 fold change: 0.546

## RRIRFRPPRLPRPRPRPQKPPRP
  shrunken log2 fold change: 0.121

## RRIRWRPPRLPRPRPRPCQVPRP
  shrunken log2 fold change: -0.0191

## RRIRLRPPRLPRPRPRPALEPRP
  shrunken log2 fold change: 0.155

## RRIRPRPPRLPRPRPRPDPFPRP
  shrunken log2 fold change: -0.0897

## RRIRARPPRLPRPRPRPLNNPRP
  shrunken log2 fold change: -0.346

## RRIRFRPPRLPRPRPRPWGTPRP
  shrunken log2 fold change: -0.131

## RRIRMRPPRLPRPRPRPMRYPRP
  shrunken log2 fold change: -0.0558

## RRIRNRPPRLPRPRPRPASLPRP
  shrunken log2 fold change: 0.0991

## RRIRFRPPRLPRPRPRPTVWPRP
  shrunken log2 fold change: 0.19

## RRIRHRPPRLPRPRPRPNNGPRP
  shrunken log2 fold change: 0.0142

## RRIRCRPPRLPRPRPRPPKQPRP
  shrunken log2 fold change: 0.123

## RRIRCRPPRLPRPRPRPMCYPRP
  shrunken log2 fold change: -0.244

## RRIRKRPPRLPRPRPRPYKPPRP
  shrunken log2 fold change: -0.0134

## RRIRTRPPRLPRPRPRPQKTPRP
  shrunken log2 fold change: -0.0581

## RRIRRRPPRLPRPRPRPYIMPRP
  shrunken log2 fold change: -0.733

## RRIRRRPPRLPRPRPRPSIKPRP
  shrunken log2 fold change: 2.9

## RRIRRRPPRLPRPRPRPKGMPRP
  shrunken log2 fold change: 0.218

## RRIRNRPPRLPRPRPRPQCFPRP
  shrunken log2 fold change: 0.242

## RRIRNRPPRLPRPRPRPNAYPRP
  shrunken log2 fold change: -0.0738

## RRIRWRPPRLPRPRPRPTNYPRP
  shrunken log2 fold change: -0.347

## RRIRNRPPRLPRPRPRPRSQPRP
  shrunken log2 fold change: -0.0986

## RRIRHRPPRLPRPRPRPVELPRP
  shrunken log2 fold change: 0.115

## RRIRYRPPRLPRPRPRPVRMPRP
  shrunken log2 fold change: -0.246

## RRIRHRPPRLPRPRPRPYVCPRP
  shrunken log2 fold change: 0.0124

## RRIRTRPPRLPRPRPRPWTGPRP
  shrunken log2 fold change: -0.352

## RRIRPRPPRLPRPRPRPVPIPRP
  shrunken log2 fold change: 0.0844

## RRIRSRPPRLPRPRPRPGHPPRP
  shrunken log2 fold change: 0.0456

## RRIRYRPPRLPRPRPRPGMKPRP
  shrunken log2 fold change: -0.067

## RRIRMRPPRLPRPRPRPPENPRP
  shrunken log2 fold change: -0.0255

## RRIRSRPPRLPRPRPRPQQRPRP
  shrunken log2 fold change: 0.153

## RRIRERPPRLPRPRPRPYIDPRP
  shrunken log2 fold change: -1.51

## RRIRMRPPRLPRPRPRPSYHPRP
  shrunken log2 fold change: -0.402

## RRIRDRPPRLPRPRPRPRMHPRP
  shrunken log2 fold change: -0.268

## RRIRNRPPRLPRPRPRPPVPPRP
  shrunken log2 fold change: 0.384

## RRIRGRPPRLPRPRPRPQERPRP
  shrunken log2 fold change: 0.595

## RRIRPRPPRLPRPRPRPAMRPRP
  shrunken log2 fold change: 0.973

## RRIRHRPPRLPRPRPRPDEEPRP
  shrunken log2 fold change: -0.0946

## RRIRTRPPRLPRPRPRPRVPPRP
  shrunken log2 fold change: 0.105

## RRIRMRPPRLPRPRPRPVQKPRP
  shrunken log2 fold change: 0.069

## RRIRWRPPRLPRPRPRPASHPRP
  shrunken log2 fold change: 0.187

## RRIRCRPPRLPRPRPRPDLNPRP
  shrunken log2 fold change: 0.127

## RRIRCRPPRLPRPRPRPKAGPRP
  shrunken log2 fold change: 0.251

## RRIRERPPRLPRPRPRPTSLPRP
  shrunken log2 fold change: -0.647

## RRIRWRPPRLPRPRPRPSCTPRP
  shrunken log2 fold change: -0.11

## RRIRQRPPRLPRPRPRPEVFPRP
  shrunken log2 fold change: 0.0304

## RRIRTRPPRLPRPRPRPVLKPRP
  shrunken log2 fold change: 0.209

## RRIRRRPPRLPRPRPRPYGNPRP
  shrunken log2 fold change: -0.219

## RRIRARPPRLPRPRPRPHLHPRP
  shrunken log2 fold change: 0.0371

## RRIRDRPPRLPRPRPRPPCEPRP
  shrunken log2 fold change: 0.121

## RRIRIRPPRLPRPRPRPCDIPRP
  shrunken log2 fold change: -0.416

## RRIRLRPPRLPRPRPRPTDGPRP
  shrunken log2 fold change: -0.0875

## RRIRIRPPRLPRPRPRPHQYPRP
  shrunken log2 fold change: -1.31

## RRIRLRPPRLPRPRPRPFSKPRP
  shrunken log2 fold change: -0.456

## RRIRRRPPRLPRPRPRPTLNPRP
  shrunken log2 fold change: 0.511

## RRIRERPPRLPRPRPRPLMSPRP
  shrunken log2 fold change: -0.406

## RRIRGRPPRLPRPRPRPWAGPRP
  shrunken log2 fold change: 0.188

## RRIRDRPPRLPRPRPRPVRYPRP
  shrunken log2 fold change: 0.152

## RRIRNRPPRLPRPRPRPCWYPRP
  shrunken log2 fold change: -0.0865

## RRIRTRPPRLPRPRPRPPSVPRP
  shrunken log2 fold change: 0.352

## RRIRYRPPRLPRPRPRPGNIPRP
  shrunken log2 fold change: -0.153

## RRIRLRPPRLPRPRPRPELDPRP
  shrunken log2 fold change: 0.273

## RRIRKRPPRLPRPRPRPSDQPRP
  shrunken log2 fold change: 0.0938

## RRIRERPPRLPRPRPRPKVFPRP
  shrunken log2 fold change: 0.0354

## RRIRIRPPRLPRPRPRPYEGPRP
  shrunken log2 fold change: -0.00931

## RRIRWRPPRLPRPRPRPNAEPRP
  shrunken log2 fold change: 0.181

## RRIRLRPPRLPRPRPRPFQYPRP
  shrunken log2 fold change: -0.182

## RRIRRRPPRLPRPRPRPEMVPRP
  shrunken log2 fold change: 0.0411

## RRIRSRPPRLPRPRPRPMQGPRP
  shrunken log2 fold change: -0.181

## RRIRQRPPRLPRPRPRPQYWPRP
  shrunken log2 fold change: -0.0582

## RRIRYRPPRLPRPRPRPMLEPRP
  shrunken log2 fold change: 0.0653

## RRIRDRPPRLPRPRPRPGIYPRP
  shrunken log2 fold change: -0.15

## RRIRKRPPRLPRPRPRPKFEPRP
  shrunken log2 fold change: -0.0585

## RRIRFRPPRLPRPRPRPETSPRP
  shrunken log2 fold change: 0.0493

## RRIRDRPPRLPRPRPRPHVHPRP
  shrunken log2 fold change: -0.134

## RRIRKRPPRLPRPRPRPNGDPRP
  shrunken log2 fold change: -0.024

## RRIRFRPPRLPRPRPRPNNEPRP
  shrunken log2 fold change: -0.265

## RRIRLRPPRLPRPRPRPKFYPRP
  shrunken log2 fold change: -0.369

## RRIRRRPPRLPRPRPRPAAFPRP
  shrunken log2 fold change: 0.967

## RRIRPRPPRLPRPRPRPSKSPRP
  shrunken log2 fold change: -0.123

## RRIRLRPPRLPRPRPRPRMPPRP
  shrunken log2 fold change: 0.352

## RRIRWRPPRLPRPRPRPLNGPRP
  shrunken log2 fold change: -0.0406

## RRIRDRPPRLPRPRPRPNDFPRP
  shrunken log2 fold change: 0.239

## RRIRTRPPRLPRPRPRPSDWPRP
  shrunken log2 fold change: 0.0388

## RRIRERPPRLPRPRPRPTCRPRP
  shrunken log2 fold change: -0.146

## RRIRNRPPRLPRPRPRPFKPPRP
  shrunken log2 fold change: -0.239

## RRIRCRPPRLPRPRPRPQKNPRP
  shrunken log2 fold change: -0.281

## RRIRYRPPRLPRPRPRPETCPRP
  shrunken log2 fold change: -0.00674

## RRIRDRPPRLPRPRPRPWYPPRP
  shrunken log2 fold change: -0.0798

## RRIRIRPPRLPRPRPRPWYLPRP
  shrunken log2 fold change: -0.166

## RRIRGRPPRLPRPRPRPGMSPRP
  shrunken log2 fold change: 0.417

## RRIRHRPPRLPRPRPRPDTRPRP
  shrunken log2 fold change: -0.0709

## RRIRDRPPRLPRPRPRPKYQPRP
  shrunken log2 fold change: -0.452

## RRIRDRPPRLPRPRPRPDEIPRP
  shrunken log2 fold change: 0.0508

## RRIRGRPPRLPRPRPRPEDTPRP
  shrunken log2 fold change: 1.58

## RRIRQRPPRLPRPRPRPQGCPRP
  shrunken log2 fold change: -0.0562

## RRIRLRPPRLPRPRPRPGHIPRP
  shrunken log2 fold change: -0.197

## RRIRGRPPRLPRPRPRPDKFPRP
  shrunken log2 fold change: 0.0879

## RRIRHRPPRLPRPRPRPTFVPRP
  shrunken log2 fold change: -0.152

## RRIRFRPPRLPRPRPRPFMLPRP
  shrunken log2 fold change: -0.66

## RRIRTRPPRLPRPRPRPQCVPRP
  shrunken log2 fold change: -0.12

## RRIRHRPPRLPRPRPRPNWIPRP
  shrunken log2 fold change: -0.19

## RRIRMRPPRLPRPRPRPCISPRP
  shrunken log2 fold change: 0.00253

## RRIRGRPPRLPRPRPRPKHIPRP
  shrunken log2 fold change: -0.00571

## RRIRGRPPRLPRPRPRPDTCPRP
  shrunken log2 fold change: 0.131

## RRIRGRPPRLPRPRPRPDLNPRP
  shrunken log2 fold change: 0.843

## RRIRERPPRLPRPRPRPCERPRP
  shrunken log2 fold change: -0.0138

## RRIRGRPPRLPRPRPRPFHVPRP
  shrunken log2 fold change: -0.0412

## RRIRSRPPRLPRPRPRPPQPPRP
  shrunken log2 fold change: 0.432

## RRIRERPPRLPRPRPRPNYWPRP
  shrunken log2 fold change: -0.344

## RRIRWRPPRLPRPRPRPGWCPRP
  shrunken log2 fold change: 0.362

## RRIRHRPPRLPRPRPRPNDGPRP
  shrunken log2 fold change: -0.134

## RRIRIRPPRLPRPRPRPEVDPRP
  shrunken log2 fold change: -0.0435

## RRIRIRPPRLPRPRPRPHIQPRP
  shrunken log2 fold change: -0.791

## RRIRERPPRLPRPRPRPLNLPRP
  shrunken log2 fold change: -0.312

## RRIRTRPPRLPRPRPRPFSFPRP
  shrunken log2 fold change: -0.341

## RRIRFRPPRLPRPRPRPPTWPRP
  shrunken log2 fold change: 0.239

## RRIRDRPPRLPRPRPRPWNQPRP
  shrunken log2 fold change: -0.0409

## RRIRHRPPRLPRPRPRPASDPRP
  shrunken log2 fold change: -0.0278

## RRIRTRPPRLPRPRPRPVLHPRP
  shrunken log2 fold change: -0.139

## RRIRARPPRLPRPRPRPRYQPRP
  shrunken log2 fold change: -0.274

## RRIRMRPPRLPRPRPRPETWPRP
  shrunken log2 fold change: 1.44

## RRIRPRPPRLPRPRPRPCRCPRP
  shrunken log2 fold change: 0.00981

## RRIRWRPPRLPRPRPRPQCKPRP
  shrunken log2 fold change: 0.132

## RRIRARPPRLPRPRPRPEQHPRP
  shrunken log2 fold change: 0.562

## RRIRNRPPRLPRPRPRPLTCPRP
  shrunken log2 fold change: -0.149

## RRIRFRPPRLPRPRPRPETVPRP
  shrunken log2 fold change: 0.0039

## RRIRTRPPRLPRPRPRPPSPPRP
  shrunken log2 fold change: 0.236

## RRIRWRPPRLPRPRPRPGCNPRP
  shrunken log2 fold change: -0.0626

## RRIRGRPPRLPRPRPRPLWCPRP
  shrunken log2 fold change: 0.204

## RRIRGRPPRLPRPRPRPCFPPRP
  shrunken log2 fold change: 0.309

## RRIRYRPPRLPRPRPRPPATPRP
  shrunken log2 fold change: 0.407

## RRIRFRPPRLPRPRPRPTNWPRP
  shrunken log2 fold change: 0.426

## RRIRNRPPRLPRPRPRPEEPPRP
  shrunken log2 fold change: 0.0512

## RRIRGRPPRLPRPRPRPQCWPRP
  shrunken log2 fold change: 0.623

## RRIRSRPPRLPRPRPRPHMEPRP
  shrunken log2 fold change: -0.376

## RRIRVRPPRLPRPRPRPFLPPRP
  shrunken log2 fold change: -0.198

## RRIRRRPPRLPRPRPRPMVDPRP
  shrunken log2 fold change: 0.0808

## RRIRKRPPRLPRPRPRPCDYPRP
  shrunken log2 fold change: -0.0336

## RRIRARPPRLPRPRPRPMSRPRP
  shrunken log2 fold change: -0.171

## RRIRRRPPRLPRPRPRPAEPPRP
  shrunken log2 fold change: 0.723

## RRIRKRPPRLPRPRPRPTNQPRP
  shrunken log2 fold change: 0.289

## RRIRSRPPRLPRPRPRPTYCPRP
  shrunken log2 fold change: -0.112
